For one experiment, the target named is monkey IGF1R (monkey). Kind of experiment: method not stated.
A further experiment concerns the target rat IGF1R (rat, UniProt P24062 31-933, limits assumed). Kind of experiment: method not stated; rat IGF1R.
In another experiment the target is human IGF1R (human, UniProt P08069 31-932, limits assumed). The experiment can be described thus: method not stated; human IGF1R.
A further experiment concerns the target mouse IGF1R (mouse, UniProt Q60751 31-933, limits assumed). The experiment can be described thus: method not stated; mouse IGF1R.
Experiment [1] concerns the target VEGFR-2 in nude mice (in vivo) (UniProt P35918 20-1345, limits assumed). The experiment can be described thus: cell-based or functional assay.
For experiment [2], the target named is VEGFR-2 in cynomolgus monkeys (in vivo). The experiment can be described thus: cell-based or functional assay.
Experiment [3] concerns the target T1, human IGF-IR-Fc fusion (human, UniProt P08069 31-932).
T1 construct: range 1-932; If it counts on the precursor, it includes the signal peptide; also called IGF1R-Fc; not shown: hinge and constant regions of human IgG
The experiment can be described thus: SPR (Biacore), IGF-IR-Fc captured on Protein A. The text has this:
(§1) An alternative method is to capture the IGF—IR-Fc on Protein A. This method was used for calculating the affinity and kinetics of certain versions of the construct 385A08-Fn-V2B-cys (both pegylated and non-pegylated and with or without his tag) from midscale and large scale materials. Specifically, IGF—IR-Fc was captured on Protein A immobilized on a Biacore CM5 sensor chip by amine coupling. VEGFR2-Fc was immobilized directly on a CM5 chip by amine coupling. The affinity and kinetic analysis involved the capture of IGF—IR-Fc on Protein A followed by injection of the tandem adnectin in solution over IGF—IR-Fc and VEGFR2-Fc. The analytical surface was regenerated between samples with glycine pH 1.5. Sensorgrams were obtained at each concentration and were evaluated using Biacore T100 evaluation software to determine the rate constants kₐ (kₒₙ) and kd (koff).
A general note: SPR reads the build-up and loss of mass on a sensor chip optically.

In experiment [4] the target is T1, human IGF-IR-Fc fusion. The experiment can be described thus: SPR (Biacore), IGF1R-Fc captured on Protein A. On the procedure:
(§2) Affinity data was also measured from midscale and large scale material, for the pegylated version of the tandem construct 385A08-Fn-V2B-cys (SEQ ID NO: 9, with and without his tag). The specific materials and methods for these calculations are described below.
as §1

In experiment [5] the target is T2, VEGFR2-Fc (R&D Systems) (UniProt P35968 20-764).
T2 construct: Bought reagent; not shown: Fc part of the bought fusion; not described
T2 sequence (P35968 20-764 limits assumed): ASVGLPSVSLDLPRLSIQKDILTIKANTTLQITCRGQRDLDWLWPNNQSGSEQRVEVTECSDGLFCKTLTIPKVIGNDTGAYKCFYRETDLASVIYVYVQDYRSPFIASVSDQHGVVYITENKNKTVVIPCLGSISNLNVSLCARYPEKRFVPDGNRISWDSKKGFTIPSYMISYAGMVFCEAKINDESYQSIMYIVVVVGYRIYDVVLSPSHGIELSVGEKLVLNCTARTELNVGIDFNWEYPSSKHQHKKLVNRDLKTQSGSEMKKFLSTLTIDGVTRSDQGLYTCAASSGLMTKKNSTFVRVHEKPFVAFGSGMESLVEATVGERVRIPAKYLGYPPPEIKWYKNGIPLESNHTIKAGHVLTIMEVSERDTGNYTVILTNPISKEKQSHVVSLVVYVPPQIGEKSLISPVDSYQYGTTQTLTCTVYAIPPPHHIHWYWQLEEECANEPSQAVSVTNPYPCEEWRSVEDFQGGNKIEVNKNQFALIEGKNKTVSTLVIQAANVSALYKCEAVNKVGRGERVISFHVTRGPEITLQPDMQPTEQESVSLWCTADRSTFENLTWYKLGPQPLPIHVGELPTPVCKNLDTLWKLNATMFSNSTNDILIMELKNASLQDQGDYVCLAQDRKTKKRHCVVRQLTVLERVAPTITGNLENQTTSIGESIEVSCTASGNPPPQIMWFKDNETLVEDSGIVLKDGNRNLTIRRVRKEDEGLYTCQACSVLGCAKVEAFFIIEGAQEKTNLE
Kind of experiment: SPR (Biacore), VEGFR2-Fc immobilised directly on a CM5 chip.

For experiment [6], the target named is T3, VEGFR-2 (KDR) on transfected cells (UniProt P35968 20-1356, limits assumed).
T3 construct: whole, on cells; also called Flk-1
T3 sequence (P35968 20-1356 limits assumed): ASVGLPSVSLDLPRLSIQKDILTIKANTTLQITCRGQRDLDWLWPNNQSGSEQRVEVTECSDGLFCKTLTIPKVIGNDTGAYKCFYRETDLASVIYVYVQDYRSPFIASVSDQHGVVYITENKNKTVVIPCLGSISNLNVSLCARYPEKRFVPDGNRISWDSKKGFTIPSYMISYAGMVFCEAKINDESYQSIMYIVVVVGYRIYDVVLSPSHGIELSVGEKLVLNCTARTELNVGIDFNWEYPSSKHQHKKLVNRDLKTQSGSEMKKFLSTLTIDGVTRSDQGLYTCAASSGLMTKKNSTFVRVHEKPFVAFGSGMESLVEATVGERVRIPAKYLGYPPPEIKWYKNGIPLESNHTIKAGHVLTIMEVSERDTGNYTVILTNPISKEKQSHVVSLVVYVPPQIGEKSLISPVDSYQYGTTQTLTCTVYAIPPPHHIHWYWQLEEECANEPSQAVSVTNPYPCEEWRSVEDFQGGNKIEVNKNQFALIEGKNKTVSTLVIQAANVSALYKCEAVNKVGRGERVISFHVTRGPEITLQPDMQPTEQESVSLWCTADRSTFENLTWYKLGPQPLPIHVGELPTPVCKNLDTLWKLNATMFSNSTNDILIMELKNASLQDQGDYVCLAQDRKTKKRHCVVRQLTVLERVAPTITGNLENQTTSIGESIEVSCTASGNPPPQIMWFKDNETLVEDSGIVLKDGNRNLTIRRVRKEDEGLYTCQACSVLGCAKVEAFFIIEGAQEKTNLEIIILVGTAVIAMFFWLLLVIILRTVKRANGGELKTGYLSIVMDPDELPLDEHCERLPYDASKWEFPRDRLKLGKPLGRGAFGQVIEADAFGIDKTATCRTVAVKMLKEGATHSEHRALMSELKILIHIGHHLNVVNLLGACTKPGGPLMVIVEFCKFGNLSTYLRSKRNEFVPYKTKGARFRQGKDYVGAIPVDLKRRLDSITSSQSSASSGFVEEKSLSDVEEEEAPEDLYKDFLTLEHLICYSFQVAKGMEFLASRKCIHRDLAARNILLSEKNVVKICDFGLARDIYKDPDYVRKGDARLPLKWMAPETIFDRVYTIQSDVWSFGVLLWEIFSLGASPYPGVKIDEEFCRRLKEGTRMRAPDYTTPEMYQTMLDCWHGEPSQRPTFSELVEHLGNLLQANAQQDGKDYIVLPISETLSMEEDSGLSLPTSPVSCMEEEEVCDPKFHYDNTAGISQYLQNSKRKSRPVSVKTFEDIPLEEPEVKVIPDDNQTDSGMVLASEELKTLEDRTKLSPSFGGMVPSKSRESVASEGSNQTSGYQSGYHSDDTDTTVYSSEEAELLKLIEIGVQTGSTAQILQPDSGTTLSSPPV
The experiment can be described thus: competitive blocking assay on 293:KDR cells; ratio of the IC50 values. On the procedure: (§3) Similarly, the pegylated, his-tagged construct 385A08-Fn-V2B-cys was able to block the interaction of a mono-specific ¹⁰Fn3-based VEGFR-2 binder (Peg-V2Bshort, SEQ ID NO: 28) with VEGFR-2 present on 293:KDR cells. […] In particular, in a Ba/F3 assay (described below), the IC₅₀ for the monomeric, non-pegylated VEGFR2 binder V2Bshort (SEQ ID NO: 28) is approximately 0.1-3 nM whereas the IC₅₀ for the monomeric, non-pegylated VEGFR2 binder having SEQ ID NO: 44 (e.g., with an N-terminal extension) is approximately 8-13 nM. […] Both the R⁺ and 293:KDR cell based competitive blocking assays are described in detail in the materials and methods section below.
(§4) 293:KDR (Sibtech, Brookfield, Conn.) were plated in 96 well plates at a concentration of 25,000 cells per well in DMEM (Invitrogen, Carlsbad, Calif.) containing 10% fetal bovine serum (Hyclone, Logan, Utah). The following day, cells were washed twice in serum free DMEM containing 0.1% BSA (Invitrogen, Carlsbad, Calif.). After the washes, the cells were incubated at 4° C. for 10 minutes in binding buffer (serum free DMEM+0.1% BSA) containing increasing concentrations of VEGFR-2 antagonists or controls. Typical controls included the mono-specific ¹⁰Fn3-based VEGFR2 binder (Peg-V2Bshort, SEQ ID NO: 28) (positive control) or the mono-specific ¹⁰Fn3-based IGF-IR binder (AT580-PEG40, SEQ ID NO: 27) (negative control). […]

Experiment [7] concerns the target T1, human IGF-IR-Fc fusion. The experiment can be described thus: SPR (Biacore), captured IGF1R-Fc, midscale purified binder.
The target in experiment [8] is T2, VEGFR2-Fc (R&D Systems). The experiment can be described thus: SPR (Biacore), VEGFR2-Fc immobilized directly on the chip. The method, then: as §2, §1
The functionality of the V2B domain was assessed by evaluating a concentration series of the midscale and large scale purification of the tandem construct 385A08-Fn-V2B (pegylated, and non-pegylated versions, his-tag and non-his-tag versions) vs. VEGFR2-Fc that was directly immobilized on a CM5 chip surface (GE, Piscataway, N.J.). VEGFR2-Fc (R&D Systems, MN) was diluted to 12 ug/mL in 50 mM Acetate pH 5.0 for an immobilization level of ˜1300 RU. Varying concentrations of 385A08-Fn-V2B in the solution phase were monitored for association (2 minutes) and dissociation (10 minutes) kinetics at a flow rate of 50 uL/min. Two 30 second injections of 50 mM glycine pH 1.7 were used to regenerate the surface.

The target of experiment [9] is T2, VEGFR2-Fc (R&D Systems). The experiment can be described thus: SPR (Biacore), immobilized VEGFR2-Fc, midscale purified binder.
Experiment [10] concerns the target T3, VEGFR-2 (KDR) on transfected cells. The experiment can be described thus: competitive blocking assay on 293:KDR cells; competitor 200 nM IRDye 800CW-labelled Peg-V2Bshort. The method, then: as §3, §4
The target in the next experiment is T4, human IGF-IR on cells (human, UniProt P08069 31-1367).
T4 construct: whole, on cells; also called cell surface IGF-IR
Kind of experiment: competitive blocking assay on R+ cells overexpressing human IGF-IR; competitor 200 nM IRDye 800CW-labelled AT580-PEG20-AT580. On the procedure: Certain tandem constructs were evaluated for their ability to compete with mono-specific IGF-IR and VEGFR-2 binders in vitro.
R⁺, a gift from Renato Baserga (Thomas Jefferson University, Philadelphia, Pa.), is a mouse embryo fibroblast overexpressing human IGF-IR in the context of a deletion in the mouse IGF-IR gene. Cells were plated in 96 well plates at a concentration of 20,000 cells per well in DMEM (Invitrogen, Carlsbad, Calif.) containing 5% calf serum (Hyclone, Logan, Utah). The following day, cells were washed twice in serum free DMEM containing 0.1% BSA (Invitrogen, Carlsbad, Calif.). After the washes, the cells were incubated at 4° C. for 10 minutes in binding buffer (serum free DMEM+0.1% BSA) containing increasing concentrations of IGF-IR antagonists or controls. Typical controls included the mono-specific ¹⁰Fn3-based IGF-IR binder (AT580-PEG40, SEQ ID NO: 27) (positive control) or the mono-specific ¹⁰Fn3-based VEGFR2 binder (Peg-V2Bshort, SEQ ID NO: 28) (negative control). Following this brief exposure to antagonists, R⁺ cells were additionally exposed to 200 nM of a bi-valent ¹⁰Fn3-based IGF-IR binder (AT580-PEG20-AT580, SEQ ID NO: 27) labeled with IRDye 800CW according to the manufacturer instructions (Li-Cor Biosciences, Lincoln, Nebr.). […] The resulting data was analyzed using GraphPad Prism (GraphPad Software, La Jolla, Calif.).

Where “and” joins values, the source holds several entries; their conditions need not be identical. Identical values can stand only once.

T1 sequence (P08069 31-932 limits assumed, form in doubt): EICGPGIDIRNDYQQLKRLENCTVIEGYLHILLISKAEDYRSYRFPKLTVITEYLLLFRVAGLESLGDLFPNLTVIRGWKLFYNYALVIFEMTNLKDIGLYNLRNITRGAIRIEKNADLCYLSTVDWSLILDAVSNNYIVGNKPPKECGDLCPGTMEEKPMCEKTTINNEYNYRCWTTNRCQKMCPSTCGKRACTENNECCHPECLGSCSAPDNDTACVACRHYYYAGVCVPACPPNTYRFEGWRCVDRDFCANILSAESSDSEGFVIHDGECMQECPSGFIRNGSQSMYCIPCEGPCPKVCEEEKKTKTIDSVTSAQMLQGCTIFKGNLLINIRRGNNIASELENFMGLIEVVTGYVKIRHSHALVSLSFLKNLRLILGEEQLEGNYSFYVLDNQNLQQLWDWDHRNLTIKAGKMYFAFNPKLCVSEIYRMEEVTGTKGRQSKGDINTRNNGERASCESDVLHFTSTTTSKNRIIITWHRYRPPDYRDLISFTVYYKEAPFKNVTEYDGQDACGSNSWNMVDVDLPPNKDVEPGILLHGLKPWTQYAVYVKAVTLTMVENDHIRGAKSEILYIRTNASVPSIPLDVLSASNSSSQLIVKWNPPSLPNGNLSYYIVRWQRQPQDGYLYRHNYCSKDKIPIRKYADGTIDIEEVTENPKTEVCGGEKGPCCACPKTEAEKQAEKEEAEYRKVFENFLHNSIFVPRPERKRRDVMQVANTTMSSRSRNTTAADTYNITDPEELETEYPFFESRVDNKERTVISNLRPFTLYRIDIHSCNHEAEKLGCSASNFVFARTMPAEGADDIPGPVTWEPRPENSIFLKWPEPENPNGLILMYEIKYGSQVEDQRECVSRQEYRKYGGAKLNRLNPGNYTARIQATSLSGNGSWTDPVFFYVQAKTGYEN
Sequence of VEGFR-2 in nude mice (in vivo) (P35918 20-1345 limits assumed): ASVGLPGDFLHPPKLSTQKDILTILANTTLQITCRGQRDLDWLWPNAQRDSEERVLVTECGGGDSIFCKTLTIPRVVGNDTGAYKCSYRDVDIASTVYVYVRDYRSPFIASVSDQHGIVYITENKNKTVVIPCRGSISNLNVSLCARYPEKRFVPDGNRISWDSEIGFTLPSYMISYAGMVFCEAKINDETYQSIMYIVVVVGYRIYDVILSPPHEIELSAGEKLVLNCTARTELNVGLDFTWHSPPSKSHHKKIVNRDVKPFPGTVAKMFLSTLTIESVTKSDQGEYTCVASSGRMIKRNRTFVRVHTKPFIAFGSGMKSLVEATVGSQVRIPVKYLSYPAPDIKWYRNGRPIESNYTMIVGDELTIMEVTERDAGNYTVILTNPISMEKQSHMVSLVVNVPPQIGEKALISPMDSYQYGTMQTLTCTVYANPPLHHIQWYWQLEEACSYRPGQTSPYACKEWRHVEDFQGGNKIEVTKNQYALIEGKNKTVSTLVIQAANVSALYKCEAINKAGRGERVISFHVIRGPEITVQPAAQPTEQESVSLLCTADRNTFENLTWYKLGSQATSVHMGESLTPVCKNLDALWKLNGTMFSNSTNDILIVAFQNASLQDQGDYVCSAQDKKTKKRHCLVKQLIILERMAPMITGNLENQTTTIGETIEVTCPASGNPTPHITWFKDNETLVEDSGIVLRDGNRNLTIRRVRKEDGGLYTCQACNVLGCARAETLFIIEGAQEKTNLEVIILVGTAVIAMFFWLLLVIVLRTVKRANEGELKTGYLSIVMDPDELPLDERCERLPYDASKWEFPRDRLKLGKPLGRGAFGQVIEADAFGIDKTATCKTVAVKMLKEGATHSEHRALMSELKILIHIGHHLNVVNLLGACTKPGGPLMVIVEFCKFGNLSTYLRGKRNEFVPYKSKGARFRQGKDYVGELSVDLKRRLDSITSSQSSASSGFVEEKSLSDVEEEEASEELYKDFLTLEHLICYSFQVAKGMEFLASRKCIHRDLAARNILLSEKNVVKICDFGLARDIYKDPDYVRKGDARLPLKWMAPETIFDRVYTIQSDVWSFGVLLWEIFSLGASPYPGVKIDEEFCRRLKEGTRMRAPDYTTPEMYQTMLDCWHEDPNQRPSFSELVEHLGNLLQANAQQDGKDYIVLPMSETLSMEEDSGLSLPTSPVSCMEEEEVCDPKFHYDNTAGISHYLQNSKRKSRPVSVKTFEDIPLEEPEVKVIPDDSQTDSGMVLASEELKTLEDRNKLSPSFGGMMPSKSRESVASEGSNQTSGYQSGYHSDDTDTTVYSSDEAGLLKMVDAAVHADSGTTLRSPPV
Sequence of human IGF1R (P08069 31-932 limits assumed): as the sequence (P08069 31-932 limits assumed, form in doubt) above

B1: 385A08-Fn-V2B-cys (with Peg) (designed binder)
chain: MGVSDVPRDLEVVAATPTSLLISWSARLKVARYYRITYGETGGNSPVQEFTVPKNVYTATISGLKPGVDYTITVYAVTRFRDYQPISINYRTEIDKPSTSTSTVSDVPRDLEVVAATPTSLLISWRHPHFPTRYYRITYGETGGNSPVQEFTVPLQPPTATISGLKPGVDYTITVYAVTDGRNGRLLSIPISINYRTEIDKPCQ
modifications: PEG on the single cysteine at position 203
Broadly, the Kd is the free concentration of one partner at which half of the binding sites on the other are occupied at equilibrium, for simple one-to-one binding. Regarding B1, the Kd came out at 0.213 nM with monkey IGF1R, 92 nM with rat IGF1R, 0.277 nM with human IGF1R and 86 nM with mouse IGF1R.

B2: pegylated, his-tagged 385A08-Fn-V2B-cys (designed binder)
chain: MGVSDVPRDLEVVAATPTSLLISWSARLKVARYYRITYGETGGNSPVQEFTVPKNVYTATISGLKPGVDYTITVYAVTRFRDYQPISINYRTEIDKPSTSTSTVSDVPRDLEVVAATPTSLLISWRHPHFPTRYYRITYGETGGNSPVQEFTVPLQPPTATISGLKPGVDYTITVYAVTDGRNGRLLSIPISINYRTEIDKPCQHHHHHH
modifications: 40 kD PEG on the single cysteine at position 203 (linear PEG in paragraph 246; type of PEG not stated in Example 6)
notes: also called 385A08-Fn-V2B-cys (with PEG and his-tag); linear pegylated, his-tagged 385A08-Fn-V2B-cys
Broadly, the koff is a measure of how fast the partners let go of each other. The term kon denotes a measure of how fast the partners come together. The IC50 is the midpoint of a concentration-inhibition curve. B2: the “plasma IC50, indirect-response PD model, nude mice bearing the Rh41 tumor” value in experiment [1] is 13800 nM. Further, the “plasma IC50 (grand mean), PK/PD model, monkeys” value in experiment [2] turned out to be 228 nM. Further, the dissociation constant (Kd) with human IGF-IR-Fc fusion [3] is 1.2 nM; with human IGF-IR-Fc fusion [4] it was 0.831 nM and 0.465 nM and 0.857 nM; with VEGFR2-Fc (R&D Systems) [5], 14 nM; with VEGFR2-Fc (R&D Systems) [8] it was 11 nM and 5.96 nM and 12.6 nM. Moreover, the koff with human IGF-IR-Fc fusion [4] is 0.00025 s⁻¹ and 0.000223 s⁻¹ and 0.000238 s⁻¹; in the experiment with human IGF-IR-Fc fusion [7], 0.000233 s⁻¹; with VEGFR2-Fc (R&D Systems) [8] it was 9.5e-05 s⁻¹ (2×) and 0.00013 s⁻¹; in the experiment with VEGFR2-Fc (R&D Systems) [9] it was 0.000149 s⁻¹. In addition, the kon was 299000 M⁻¹ s⁻¹ and 480000 M⁻¹ s⁻¹ and 277000 M⁻¹ s⁻¹ with human IGF-IR-Fc fusion [4]; 200000 M⁻¹ s⁻¹ with human IGF-IR-Fc fusion [7]; 8600 M⁻¹ s⁻¹ and 21800 M⁻¹ s⁻¹ and 7530 M⁻¹ s⁻¹ in the experiment with VEGFR2-Fc (R&D Systems) [8]; 10600 M⁻¹ s⁻¹ with VEGFR2-Fc (R&D Systems) [9]. Further, in experiment [6], the “fold difference in activity against Peg-V2Bshort” value was found to be 7 fold. Besides, the IC50 was ~140 nM in [10] and 900 nM in the experiment with human IGF-IR on cells.
